{"source": "paper PMC3156817", "about": "(Nature Communications, 2011)", "key": {"[1]": {"molecular_target": "huPrP23-231 (human) (UniProt P04156)", "assay": "DELFIA"}, "[2]": {"molecular_target": "huPrP23-231 (Homo sapiens, UniProt P04156)", "assay": "DELFIA"}}}
{"molecule": "Aβ-derived diffusible ligands (ADDLs) prepared from Aβ1-42 (from UniProt P05067) (peptide)", "values": [{"measurement": "Kd", "setting": "[1]", "value": 100, "unit": "nM"}]}
{"molecule": "bADDLs prepared from biotinylated Aβ1-42 (bAβ1-42) (from UniProt P05067) (peptide)", "values": [{"measurement": "Kd", "setting": "[1]", "value": 82, "unit": "nM"}]}
{"molecule": "ICSM-18 (antibody, V domains shown) VH: EVQLQQSGPELVKPGSSVKISCKASRNTFTDYNLDWVKQSHGKTLEWIGNVYPNNGVTGYNQKFRGKATLTVDKSSSTAYMELHSLTSEDSAVYYCALYYYDVSYWGQGTLVTVSS VL: QIVLTQSPAIMSASPGEKVTMTCSASSSVSYMHWYQQKSGTSPKRWIYDTSKLASGVPARFSGSGSGTSYSLTISSMEAEDAATYFCHQWRSNPYTFGGGTKLEIK", "values": [{"measurement": "Kd", "setting": "[2]", "value": "~10", "unit": "nM"}, {"measurement": "Ki", "setting": "[2]", "value": "~20", "unit": "nM"}]}
